Results as given in patent publication US20250161472A1 (BIOATLA, published 2025).
Each block holds one binder with its values, some of them ahead of it.

What was measured:
[1] = target: human ROR2 expressed on the surface of HEK293 cells (human, UniProt Q01974 34-943); assay: cell-based or functional assay
[2] = target: T1, human ROR2 (receptor tyrosine kinase-like orphan receptor 2) (human, UniProt Q01974 34-403, limits assumed); assay: plate binding assay (ELISA per Example 1) on ROR2 at pH 6.0 and pH 7.4, 40 ng mAb, untreated and after 1 h at 60°C
T1 construct: Antigen of the ELISA, SPR and pH titration assays; also called hROR2
T1 sequence (Q01974 34-403 limits assumed): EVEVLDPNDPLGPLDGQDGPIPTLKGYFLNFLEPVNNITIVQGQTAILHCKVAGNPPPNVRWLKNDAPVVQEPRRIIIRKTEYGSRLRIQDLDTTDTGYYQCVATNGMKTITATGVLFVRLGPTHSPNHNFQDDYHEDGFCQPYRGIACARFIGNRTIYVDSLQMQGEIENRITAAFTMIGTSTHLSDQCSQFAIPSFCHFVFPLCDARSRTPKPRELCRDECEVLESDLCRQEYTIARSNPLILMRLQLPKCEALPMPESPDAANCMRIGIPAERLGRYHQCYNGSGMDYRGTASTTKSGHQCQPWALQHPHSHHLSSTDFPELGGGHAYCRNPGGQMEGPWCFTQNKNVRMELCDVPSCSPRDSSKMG

[3] = target: human ROR2 (receptor tyrosine kinase-like orphan receptor 2) (human) (UniProt Q01974); assay: affinity ELISA on human ROR2, pH 7.4
human ROR2 (receptor tyrosine kinase-like orphan receptor 2) (human), sequence (Q01974 34-403 limits assumed): as above

[4] = target: human ROR2 (receptor tyrosine kinase-like orphan receptor 2) (human) (UniProt Q01974); assay: affinity ELISA on human ROR2, signal at pH 6.0 over pH 7.4
[5] = target: human ROR2 (receptor tyrosine kinase-like orphan receptor 2) (human) (UniProt Q01974); assay: affinity ELISA on human ROR2, pH 6.0
[6] = target: T1, human ROR2 (receptor tyrosine …); assay: affinity ELISA on human ROR2, pH 6.0; design: unit not given here
[7] = target: T1, human ROR2 (receptor tyrosine …); assay: affinity ELISA on human ROR2, pH 7.4; design: unit not given here

human ROR2 expressed on the surface of HEK293 cells, sequence (Q01974 34-943): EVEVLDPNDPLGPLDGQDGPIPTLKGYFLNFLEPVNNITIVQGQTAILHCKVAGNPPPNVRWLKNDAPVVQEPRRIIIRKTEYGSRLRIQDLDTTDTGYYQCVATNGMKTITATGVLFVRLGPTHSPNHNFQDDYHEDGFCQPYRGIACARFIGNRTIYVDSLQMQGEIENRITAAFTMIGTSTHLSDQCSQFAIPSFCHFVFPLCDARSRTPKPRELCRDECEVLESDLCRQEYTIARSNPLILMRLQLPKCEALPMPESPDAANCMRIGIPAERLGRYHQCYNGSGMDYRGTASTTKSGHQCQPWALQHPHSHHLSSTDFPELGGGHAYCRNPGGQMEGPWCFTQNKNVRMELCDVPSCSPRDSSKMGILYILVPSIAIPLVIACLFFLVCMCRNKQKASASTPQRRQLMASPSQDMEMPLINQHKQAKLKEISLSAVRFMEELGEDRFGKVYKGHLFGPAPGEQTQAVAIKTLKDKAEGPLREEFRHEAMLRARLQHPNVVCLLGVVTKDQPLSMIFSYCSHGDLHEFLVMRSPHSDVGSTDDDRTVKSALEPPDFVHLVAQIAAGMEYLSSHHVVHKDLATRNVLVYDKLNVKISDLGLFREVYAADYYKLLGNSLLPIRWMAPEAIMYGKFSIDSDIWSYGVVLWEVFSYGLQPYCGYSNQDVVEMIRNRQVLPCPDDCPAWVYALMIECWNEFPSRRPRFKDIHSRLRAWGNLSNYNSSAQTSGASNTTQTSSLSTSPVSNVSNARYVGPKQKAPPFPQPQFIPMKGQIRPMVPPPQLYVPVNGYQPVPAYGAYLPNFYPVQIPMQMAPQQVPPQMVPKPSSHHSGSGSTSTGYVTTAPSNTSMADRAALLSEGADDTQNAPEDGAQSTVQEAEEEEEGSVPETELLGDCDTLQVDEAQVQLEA

B1: BAP048 conjugated to monomethyl auristatin E (BAP048 ADC) (other)
VL: AIQLTQSPSSLSASVGDRVTITCSATSSVSYMHWYLQKPGQSPQLLIYGTSNLASGVPDRFSGSGSGTDFTLKISRVEAEDVGVYYCQQRSSYPFTFGQGTKVEIK
VH: EVQLVQSGAEVKKPGESLRISCKGSGYTFTEYTMHWVRQAPGQGLEWMGGINTNNGGTGYNQKFKGRVTISADKSISTAYLQWSSLKASDTAMYYCAHGSLYSYGNSYFDYWGQGTLVTVSS
modifications: MMAE drug conjugate (site, chain and linker not stated in Example 5)
cell killing, difference of effective concentration between pH 7.4 and pH 6.0 [1]: ~10 fold

binding result [2]: binds
B2: BAP048.7-humC02D09-CAB )#3947) (antibody, V domains shown)
VH: QVQLVQSGAEVKKPGASVKVSCKASGYTFTEYTMHWVRQARGQRLEWIGGINTNNGGTGYNQKFKGRVTISADKSISTAYLQWSSLKASDTAMYYCAHGSLYSYGNSYFDYWGQGTLVTVSS
VL: AIQLTQSPSSLSASVGDRVTITCSATSSVSYMHWYQQKPGQAPRLLIYGTSNLASGVPDRFSGSGSGTDFTLKISRVEAEDVGVYYCQQRSSYPFTFGQGTKVEIK
notes: The sheet says 'mAb'; also called BAP048.7-C02D09; ROR2-CAB1-ADC (as conjugate)

binding result [2]: binds
B3: BAP048.7-humA03F01-CAB (#3948) (antibody, V domains shown)
VH: EVQLVQSGAEVKKPGESLRISCKGSGYTFTEYTMHWIRQSPSRGLEWLGGINTNNGGTGYNQKFKGRVTISADKSISTAYLQWSSLKASDTAMYYCAHGSLYSYGNSYFDYWGQGTLVTVSS
VL: AIQLTQSPSSLSASVGDRVTITCSATSSVSYMHWYLQKPGQSPQLLIYGTSNLASGVPDRFSGSGSGTDFTLKISRVEAEDVGVYYCQQRSSYPFTFGQGTKVEIK
notes: The sheet says 'mAb'; also called BAP048.7-humA03F01 (#3948); BAP048.7-A03F01

Affinity ELISA, pH 7.4 [3]: 0.115 | ratio, pH 6.0/7.4 [4]: 1.95 | Affinity ELISA, pH 6.0 [5]: 0.224
B4: HC-N106E (antibody, V domains shown)
VH: EVQLQQSGPELVKPGASVKISCKTSGYTFTEYTMHWMKQSHRKSLEWIGGINTNNGGTGYNQKFKGKATLTVDKSSSTAYMELRSLTSEDSAVYFCARGSLYSYGESYFDYWGQGTLVTVSS
VL: QIVLTQSPAIMSASPGEKVTITCSATSSVSYMHWFQQKPGTSPKLWIYGTSNLASGVPARFSGSGSGTSYSLTISRMEAEDAATYYCQQRSSYPFTFGQGTKVEIK

Affinity ELISA, pH 7.4 [3]: 0.107 | ratio, pH 6.0/7.4 [4]: 1.77 | Affinity ELISA, pH 6.0 [5]: 0.19
B5: LC-F097D (antibody, V domains shown)
VH: EVQLQQSGPELVKPGASVKISCKTSGYTFTEYTMHWMKQSHRKSLEWIGGINTNNGGTGYNQKFKGKATLTVDKSSSTAYMELRSLTSEDSAVYFCARGSLYSYGNSYFDYWGQGTLVTVSS
VL: QIVLTQSPAIMSASPGEKVTITCSATSSVSYMHWFQQKPGTSPKLWIYGTSNLASGVPARFSGSGSGTSYSLTISRMEAEDAATYYCQQRSSYPFTDGQGTKVEIK

Affinity ELISA, pH 6.0 [6]: 0.755 | Affinity ELISA, pH 7.4 [7]: 0.474
B6: LC-T096D (antibody, V domains shown)
VH: EVQLQQSGPELVKPGASVKISCKTSGYTFTEYTMHWMKQSHRKSLEWIGGINTNNGGTGYNQKFKGKATLTVDKSSSTAYMELRSLTSEDSAVYFCARGSLYSYGNSYFDYWGQGTLVTVSS
VL: QIVLTQSPAIMSASPGEKVTITCSATSSVSYMHWFQQKPGTSPKLWIYGTSNLASGVPARFSGSGSGTSYSLTISRMEAEDAATYYCQQRSSYPFDFGQGTKVEIK
notes: CPE single point mutant of parent VL 48.6-LC-WT

Affinity ELISA, pH 6.0 [6]: 1.34 | Affinity ELISA, pH 7.4 [7]: 0.7
B7: LC-Y031C (antibody, V domains shown)
VH: EVQLQQSGPELVKPGASVKISCKTSGYTFTEYTMHWMKQSHRKSLEWIGGINTNNGGTGYNQKFKGKATLTVDKSSSTAYMELRSLTSEDSAVYFCARGSLYSYGNSYFDYWGQGTLVTVSS
VL: QIVLTQSPAIMSASPGEKVTITCSATSSVSCMHWFQQKPGTSPKLWIYGTSNLASGVPARFSGSGSGTSYSLTISRMEAEDAATYYCQQRSSYPFTFGQGTKVEIK
notes: as for B6

Affinity ELISA, pH 6.0 [6]: 0.911 | Affinity ELISA, pH 7.4 [7]: 0.405
B8: LC-Y031D (antibody, V domains shown)
VH: EVQLQQSGPELVKPGASVKISCKTSGYTFTEYTMHWMKQSHRKSLEWIGGINTNNGGTGYNQKFKGKATLTVDKSSSTAYMELRSLTSEDSAVYFCARGSLYSYGNSYFDYWGQGTLVTVSS
VL: QIVLTQSPAIMSASPGEKVTITCSATSSVSDMHWFQQKPGTSPKLWIYGTSNLASGVPARFSGSGSGTSYSLTISRMEAEDAATYYCQQRSSYPFTFGQGTKVEIK
notes: as for B6
